Test: soluble on expression in E. coli; label from the status in PepcDB or PDB records
In the case of “MTLLGTALRPAATRVMLLGSGELGKEVAIECQRLGVEVIAVDRYADAPAMHVAHRSHVINMLDGDALRRVVELEKPHYIVPEIEAIATDMLIQLEEEGLNVVPCARATKLTMNREGIRRLAAEELQLPTSTYRFADSESLFREAVADIGYPCIVKPVMSSSGKGQTFIRSAEQLAQAWKYAQQGGRAGAGRVIVEGVVKFDFEITLLTVSAVDGVHFCAPVGHRQEDGDYRESWQPQQMSPLALERAQEIARKVVLALGGYGLFGVELFVCGDEVIFSEVSPRPHDTGMVTLISQDLSEFALHVRAFLGLPVGGIRQYGPAASAVILPQLTSQNVTFDNVQNAVGADLQIRLFGKPEIDGSRRLGVALATAESVVDAIERAKHAAGQVKVQG”, the “soluble on expression in E. coli” value is reported as “soluble”.
In the case of “MTMPLRGLGPPDDTGVREVSTGDDHHYAMWDAAYVLGALSAADRREFEAHLAGCPECRGAVTELCGVPALLSQLDRDEVAAISESAPTVVASGLSPELLPSLLAAVHR”, the “soluble on expression in E. coli” value is reported as “soluble”.
In the case of “MTMSLEVFEKLEAKVQQAIDTITLLQMEIEELKEKNNSLSQEVQNAQHQREELERENNHLKEQQNGWQERLQALLGRMEEV”, the “soluble on expression in E. coli” value is reported as “soluble”.
In the case of “MTMTQQIKAVVYDFGGVLLSYEGVMEKWVAMSRSLGLPDDAVHSESVGIEFSQWLGPDRSLFLGTLTVDDLEGGLFLQYLKHKYGNKLTDNVVIKPFTECLRGENVKIHKNMQKTVEILHKKGFKTAMLTNNMFLDKEHKETRLPCDLTHFDEVVESCLEHLMKPDARFYHLVEKRLGVKPEEIVFLDDLHENIEAAEKLGWNTILVEDIEKAIHELEGFTKVKLI”, the “soluble on expression in E. coli” value is reported as “not soluble”.
For “MTNLKAVIPVAGLGMHMLPATKAIPKEMLPIVDKPMIQYIVDEIVAAGIKEILLVTHASKNAVENHFDTSYELESLLEQRVKRQLLAEVQSICPPGVTIMNVRQGEPLGLGHSILCARPAIGDNPFVVVLPDVVIDDASADPLRYNLAAMIARFNETGRSQVLAKRMPGDLSEYSVIQTKEPLDREGKVSRIVEFIEKPDQPQTLDSDIMAVGRYVLSADIWPELERTQPGAWGRIQLTDAIAELAKKQSVDAMLMTGDSYDCGKKMGYMQAFVKYGLRNLKEGAKFRKGIEKLLSE”, the “soluble on expression in E. coli” value was “not soluble”.
In the case of “MTNNAVLQLRAERLARATRPFLARGNRVRRCQRCLLPLKSCLCDTLTPSQAKSRFCLVMFDTEPMKPSNTGRLIADILPDTAAFQWSRTEPPQALLELVQHPDYQPIVVFPASYAGEAREVISTPPAGKPPLFIMLDGTWPEARKMFRKSPYLDHLPVISVDLSRLSAYRLREIHAEGQYCTAEVAIALLDLAGDTEAATSLGEHFTRFKTRYLAGKTQHPGNVTALEHHHHHH”, the “soluble on expression in E. coli” value is reported as “soluble”.
For “MTNYVKKVSIEDFGCQFLHTAHWNNRLRTTGGRFFPNDRHLDFNPKIYREFGIDIFRKIVRHELCHYHLYIQGKGYQHRDKAFKELLEKVDGLRYTPRVTAVKVNYHHYSCQSCGQVYRRRRRVNLRKFACGYCHGRLIESFLEHHHHHH”, the “soluble on expression in E. coli” value was “not soluble”.
For “MTPFTVDILIPIWNRPVETRNCLVTLMETTPSARLILIDNGSDRETERLLEEFSEILGERALFLKTSANQGFVRAVNRSLAQVEAPYAVVMQNTTLVTRGWLEPMVELADSRPDAGIIVPRLELEDGQGRRPKAAPPAGPVTEVSHGSFAASMVRRELVERQGGFDEELDGGPWCLRDYSRRAFRNGFLTLALDGAVVTYAEEVPLGSVARREETVRRSAETCRARWGREDAFCIYFPKDAEPEAVHGKLDVILRGARMGQCFTLILHPGLHKSLMETGHAPLHSNIALAPLPRFFATGEIRKIIGKLASVRGDTVTVAGVDGLSIPGVEGARSFSWLADEIRRRHESLYRPESP”, the “soluble on expression in E. coli” value was “soluble”.
In the case of “MTPILTDRPALARHRTRACRAPALFLHEEAAREVEERLSEVNRRFTAPAVVTAFPEVWRDRLPNARIVTDAEELALDPGAHDLVIHALAMHWSNDPVGQLVQSRRALRPDGLFLGLLFGGRTLSELRIALAEAEAAVTGGLSPRVLPMAEIRDLGALLQRAGFALPVADSLVREVRYRDTLHLMRDLRAMGETNALEARLRRPSRRALFAEAEARYPRRADDRIVASFEIICLTGWAPHESQQKPLRPGSAARSLAEALAAARKDGPGDG”, the “soluble on expression in E. coli” value is reported as “not soluble”.
With “MTPKEIFESNRPGSKDVAWCPGCGNFGIRNILIEAFSELNLKPTEVVIISGIGQAAKMPHYINVNGYHTLHGRAIPIATAVKAANPSLTVIAEGGDGDMYAEGGNHLLHAIRRNPDITVLIHNNQIYGLTKGQASPTTPIGMKTPTQPWGVFEEPLNPIALAIALGASFVARTFVGYFKESVEIIKQAIKHKGLAIVDIFQPCVSFNKLNTYSWYKEHTYWMKDHDPHDRIEAFKRAIETDPLPLGIFYINEKPTFEEQVPAYKRDKRPLWMRDPKIELVKKFFESKR” the “soluble on expression in E. coli” value was “not soluble”.
In the case of “MTPPEIDFFPDFIADPHRLFNHLKDSVLWDERMRARKTASFGAPYDYSQITYPAVPMPEALEQLCGPIEQLLGFRPNNCLLNCYPDGHSSMGFHSDANEQLVTGTGVVIVSLGHARAMVFRHKESGATFDYSLASGSLLHMSDELQKHWLHAIPKAPDAGERISLSFRQLKTGLEHHHHHH”, the “soluble on expression in E. coli” value is reported as “soluble”.
With “MTPTHPTVTELLLPLSEIDDRGVYFEDSFTSWRDHIRHGAAIAAALRERLDPARPPHVGVLLQNTPFFSATLVAGALSGIVPVGLNPVRRGAALAGDIAKADCQLVLTGSGSAEVPADVEHINVDSPEWTDEVAAHRDTEVRFRSADLADLFMLIFTSGTSGDPKAVKCSHRKVAIAGVTITQRFSLGRDDVCYVSMPLFHSNAVLVGWAVAAACQGSMALRRKFSASQFLADVRRYGATYANYVGKPLSYVLATPELPDDADNPLRAVYGNEGVPGDIDRFGRRFGCVVMDGFGSTEGGVAITRTLDTPAGALGPLPGGIQIVDPDTGEPCPTGVVGELVNTAGPGGFEGYYNDEAAEAERMAGGVYHSGDLAYRDDAGYAYFAGRLGDWMRVDGENLGTAPIERVLMRYPDATEVAVYPVPDPVVGDQVMAALVLAPGTKFDADKFRAFLTEQPDLGHKQWPSYVRVSAGLPRTMTFKVIKRQLSAEGVACADPVWPIRR” the “soluble on expression in E. coli” value was “soluble”.
In the case of “MTQAILALSQIEKAFPGVKALDKASLNVYPGRVMALMGENGAGKSTLMKVLTGIYSKDAGSIEYQGQPVSFKGPRDSQLAGISIIHQELNLIPQLTIAENIFLGREMTSPFGRILWDEMHRKADQLLARLNVKHSAKTLLGELSLGEQQMVEIAKALSFESKVIIMDEPTDALTDTETESLFNVINELREQGCGIVYISHRLKEIFEICDDITVLRDGKFIGECRVCDTNEDGLIEMMVGRKLEEQYPRIAAQQGDISLEVIGLTGSGVHDVSFTLKKGEILGVSGLMGAGRTELMKVIYGALPSERGVINLNGRTVNPVSPQDGLANGIAYISEDRKGDGLVLGLSVKENMSLCALDQLSKGVQIRHADEVIAVDDFIRLFNIKTPSREQIIGNLSGGNQQKVAIAKGLMTKPKVLILDEPTRGVDVGAKKEIYQLINQFKAEGMSIILVSSEMPEVLGMSDRILVMHEGRISGEFMASEADQEKLMACAVGRNPAHAA”, the “soluble on expression in E. coli” value is reported as “not soluble”.
With “MTQCYAEITGWGKCLPPATLSNHDLSTFLDTSDEWIQSRTGIEQRRISHVNTSDLATVAAQHAIACAGVSVEEIDLIIVATCSPDSLIPNIASRVQQNLGIPSAAAFDLNAACTGFLYGLETATRLMQASHYRHALVIGAERLSFYLDWTKRDTAVLFGDGAGAVVLSKTEQKVGLQDAQIGCDAQGRDILAVPKFGTAMDRFDADNGYWAFDFVGKEIFKRAVRGMGAAAQQVLARSGLSTEEIDVVIPHQANIRIIQTLCDLAGIAQDKAFVNIHRYGNTSAATVPIALCEALEQGKIKPHDDLLVAAFGAGLTWGAGHIRWGERITPLGKSDAQLPSCDHTALDLLSKAIEHCKRHQSE” the “soluble on expression in E. coli” value was “not soluble”.
With “MTQLCSDVRVSPLPGTAKVGDTYILFEHHGPWSHDILDGGTFDKETSAALKAMGCGFYLIRRHGREGRIERPKKTAYLVFGSAGIAEKLMVDDVTDLLKLDVSGPGKNRQFGAEQEAQPIILVCTHAKRDACCAIKGRPMAQALTEEFPDSPVWECSHTKGHRFAPSMVLMPWGYTWGQLNKPAAFDMYRYAQRGQLFLPGNRGRGIWPMKGQIAEVAVAQQLAQEGETVTLGQLRVESIEEAQAHVADSHTARTWTVFLREEVVAGIVDSCHKPPKTGTAWVADRVKENGA” the “soluble on expression in E. coli” value was “not soluble”.
With “MTQMNFTDRATRVAIIANGKYQSKRVASKLFAAFKHDPDFYLSKKDPDIVISIGGDGMLLSAFHMYEKQLDKVRFVGVHTGHLGFYTDYRDFEVDTLINNLKNDKGEQISYPILKVTITLEDGRVIRARALNESTIKRIEKTMVADVVINQVVFERFRGDGILVSTPTGSTAYNKSLGGAVLHPTIEALQLTEISSLNNRVYRTLGSSVIIPKKDAIEIVPKRVGVYTISIDNKTVHYKNVTKIEYSIDEKSINFVSTPSHTSFWERVNDAFIGEPEHLEHHHHHH” the “soluble on expression in E. coli” value was “not soluble”.
With “MTQTNNPLHGITLETIITQLVEHYGWEELGARIKIRCFTEAPSIKSSLRFLRKTDWAREKVEYLYLKTNKLPLPAAKSIQAPAKEPSKKSAPKPNSKPTQTKVVTPTPAVEGQVNSHIWGKRDLEHHHHHH” the “soluble on expression in E. coli” value was “soluble”.
In the case of “MTRGLDYYEVMGLTRSANDIDIRRAYRRLALKYHPDINKDGAAGDEFLRICEAYEVLCDPKTKGFYDLYGEDALKDGISDGNGGLKGPMYRFNPEESPKAVFERFFGTANPYEALEALSNQFESMTSEEAPARGKNKVYPLELTLEEIFHGCLKKVAHKRKVLLFSGEYVEEERQLTVDVKPGLPTGTRFVFEGEGNKTPKKEPGPVVFVLKPKPHPRFVRRGSDLVHKVTLPLHHALIGTTLDIRTLDDRDLKVPISDIMRPGSSLTVPGEGMPLPATPSARGNLVIEIDLLFPTHLTETQKMLLRSAFF”, the “soluble on expression in E. coli” value is reported as “soluble”.
In the case of “MTSENSESQDIWLTDEQQDVWLDVWTMRIGLPARLDAQLKEAAGVSHFEYFTMAQISMAPEHRVRMSELAELSDMTLSHLSRVVTRLEKAGWVKRVPDPDDGRATVAVLTDSGWEKVKATAPGHVKEVRRLVFDDLTPEELKVMGTAMKKIVNRLDMSNRLPRV”, the “soluble on expression in E. coli” value is reported as “not soluble”.
For “MTSKVGPVALKTFREKLGPELLEVFDKSYKSFTDVQVLSGTHLLNLSDVVVESPTGSGKTLAFVLPMMRMIQNAKLQPADIGALILSPSRELCSQIVSVIQPFAEKLNLTVETVTGGQKVDKNIKMFKNKNVNILVATPGRLFQIIQHEKTLIARKMRTLQLLVIDEADRFNEIQFEDHMREILSCIPKQRRTGLFSATQVKEEDDLMVFGLRNAKQVKVAQERNSAAPSTLKNYYVECRADEKTSVCLEFIRQRTDKKILIFFPSCNSVRYFYKIFERCLGKRPLFAVHGKCSNPHRASQIKAFSDSTNGVMISTDVMARGIDISDIDWVIQFDLPKHSSWFVHRAGRTARCGREGNALILIASEQLAYVNFLDNHEKVKLDEIKVPTNNSRKSEELRQKMIKIQVSDRAILEAGTRAFVSHVESYAKHDCHLICSLDDLNVVGLANSYALLRLPKMRELSQRKDLDMFDRSAIETSEIKYADVKLEANRETVMKEKHEKKVETLAAKDKKRREKEARKLKKMGGRFRNGGGTGRKAEEKKALKRKAEEEDDAQNDIRLLKRIKRGKLSKKEIKDVL”, the “soluble on expression in E. coli” value was “not soluble”.
For “MTSLQRKGPQTRILSTGEEEKLKRDQALVSAFKQQKLEKEAQKNWDLFYKRNSTNFFKDRHWTTREFEELRSCREYEGQKLTLLEAGCGVGNCLFPLLEEDSNIFAYACDFSPRAVDYVKQHPLYNAERCKVFQCDLTRDDLLDHIPPESVDAVTLIFVLSAVHPEKMHLVLLNVYKVLKPGRSVLFRDYGLNDHAMLRFKAGSKLGENFYVRQDGTRSYFFTDEFLAKLFVDAGYEEVVNEYVFRETVNKKEGLCVPRVFLQSKFRKPPKDPAPTTDSASLLRKEF”, the “soluble on expression in E. coli” value was “not soluble”.
In the case of “MTSNKQLINERDHAESALADMYFAATGDEPEWSNWFGFSDAVDAVVDRIADLEAKQPSPVVPEGLVKAVRFYEQVKRENPPVETEAWKDAIDWVLKESCQAVNIDTNGD”, the “soluble on expression in E. coli” value is reported as “soluble”.

— the DeepSol protein solubility set
